The source of these data is article PMC3327674, “Structural and Functional Characterization of Mature Forms of Metalloprotease E495 from Arctic Sea-Ice Bacterium Pseudoalteromonas sp. SM495” (PLoS ONE, 2012).

Experiment [1] deals with C-phycocyanin (Synechocystis sp. strain PCC6803) (UniProt Q54715). The experiment in a line: SPR; BIACORE 3000, 25°C; CPC amine-coupled on a CM5 chip; PPC domains 0.25-8 µM at 30 µl/min; regeneration with 20 mM NaOH; global fits, BIAevaluation 4.1.
Experiment [2] has as its target GST-fused PPC12 (PPC1 and PPC2 domains) of metalloprotease E495 (Pseudoalteromonas sp. SM495). In words: pull-down; GST-fused PPC domain (or mutant) attached to glutathione-agarose resin; 0.1 mg/ml CPC or casein added, 4°C, 12 h with shaking; substrate remaining in the supernatant analysed by 12.5% SDS-PAGE and ImageJ.
The target of experiment [3] is GST-fused PPC2 domain of metalloprotease E495 (Pseudoalteromonas sp. SM495). The experiment is described as above.
Experiment [4] addresses GST-fused PPC1 domain of metalloprotease E495 (Pseudoalteromonas sp. SM495). The description is as above.

Sequence of C-phycocyanin (Synechocystis sp. strain PCC6803) (Q54715 whole entry, chain 1 of 2, other chains not shown, the tested form may be a part): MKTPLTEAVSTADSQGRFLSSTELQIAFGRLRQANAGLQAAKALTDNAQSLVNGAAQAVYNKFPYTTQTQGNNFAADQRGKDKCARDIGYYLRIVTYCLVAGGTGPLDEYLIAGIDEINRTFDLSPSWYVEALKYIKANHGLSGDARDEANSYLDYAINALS

In experiment [1], “GST-fused PPC2 domain of metalloprotease E495 (domain or fragment)” registered a Kd of 2.47 µM, a koff of 0.0162 s⁻¹ and a kon of 6560 M⁻¹ s⁻¹.
Turning to “C-phycocyanin (from UniProt Q54715 1-162; Q54714 1-172) (complex)”, the percent bound in experiment [2], in experiment [3] and in experiment [4] was 30% throughout.
In experiment [1], “GST-fused PPC1 domain of metalloprotease E495 (domain or fragment)” displayed a dissociation constant (Kd) of 0.77 µM, a koff of 0.0158 s⁻¹ and a kon of 20400 M⁻¹ s⁻¹.
Regarding alpha casein (natural protein), the percent bound in experiment [2], in experiment [3] and in experiment [4] was 30% throughout.
“E495-M-C1 (mature form of metalloprotease E495 containing the catalytic domain and the PPC1 domain) (enzyme)”: the K m of α-casein hydrolysis at 50°C (non-linear fit, Michaelis-Menten) in the experiment with alpha casein turned out to be 18 µM.
Still for that read-out and setting: with “E495-M (mature form of metalloprotease E495 containing only the catalytic domain) (enzyme)” the figure was 67 µM.
